Earlier results, collected in article PMC8745080.

Columns and labels:
His98 [1] = biological target: T1, His98 (UniProt position 99, NFPNYHQTSEI); assay: NMR; conditions: apo (ligand-free), folded
His98 [2] = biological target: T1, His98; assay: not stated (NMR inferred from the apo data of the same reference); conditions: holo (bile-salt-bound; identity of the bound bile salts not given), folded
His98 [3] = biological target: His98 (UniProt position 99, SEKFSHEQEVK); assay: not stated (the review mentions pH-dependent NMR measurements on cL-BABP in the same section); conditions: apo (ligand-free), folded

| Substance | pKa (His98 [1]) | pKa (His98 [2]) | pKa (His98 [3]) |
| --- | --- | --- | --- |
| Human ileal bile acid-binding protein (hI-BABP; gastrotropin, FABP6), common isoform (Homo sapiens) | 6.6 | 7.0 |  |
| Chicken liver bile acid-binding protein (cL-BABP; liver basic fatty acid-binding protein) (Gallus gallus) |  |  | 4.7 |
